Source: patent US12042530B2, “Target peptides for immunotherapy and diagnostics” (University of Virginia Patent Foundation, priority 2012, dated 2024)
Non-standard residues stand in square brackets, D forms with d. No end group written: not given here. pT = C[C@@H](OP(=O)(O)O)[C@H](N)C(=O)O; pS = N[C@@H](COP(=O)(O)O)C(=O)O

Legend:
[1] = target: T1, HLA-B*0702 (HLA-B7) peptide complexes (Homo sapiens, UniProt P01889); assay: HLA-B*0702 phosphopeptides associated with leukemia samples (isolation of HLA-associated peptides); settings: for Copies/cell class, ALL1: acute lymphoblastic leukemia sample ALL1; for Copies/cell class, HCL1: hairy cell leukemia sample HCL1; for Copies/cell class, B Cell: healthy B cells; for Copies/cell class, T Cell: healthy T cells; for Copies/cell class, BM: healthy bone marrow
T1 construct: endogenous in cells; host or cells: JY B-lymphoblastoid line; primary ALL, CLL, HCL, AML samples; bone marrow; healthy B and T cells
Text: To identify naturally processed tumor-associated phosphopeptides, HLA-A*0201 (HLA-A2) and HLA-B*0702 (HLA-B7) peptide complexes from four (4) chronic lymphocytic leukemia (CLL) tumor samples, a mantle cell lymphoma sample (MCL), one acute lymphoblastic leukemia (ALL), and an acute myeloid leukemia (AML) sample, in addition to healthy splenic T and B-cells and the cultured lymphoblastoid cell line JY were isolated. These efforts yielded 10 HLA-A2-restricted and 86 HLA-B7-restricted phosphopeptide antigens (see Tables 6 and 7).
All cell lines were grown at 37° C. with 5% CO2 in growth medium consisting of RPMI 1640 supplemented with 10% FCS and two mM L-glutamine. Blood or leukapheresis samples were taken from patients with high-burden leukemia in heparin. Tumor cells were recovered by layering the blood over density gradient (Ficoll) and collecting the tumor layer following centrifugation. The tumor was washed in tris-buffered saline (TBS). The purity of the tumor was assessed using flow cytometry and was >98% pure in all cases. For healthy T and B-cell populations, a normal spleen sample processed and tonsil sample was collected and lymphocytes released through mechanical disruption. Mononuclear cells were isolated using a density gradient and 10^9 T cells isolated using anti-CD19 or anti-CD3 microbeads (Miltenyi Biotec Inc., Auburn, California, United States of America) with purity >98% were obtained. Bone marrow sample was obtained from an elective orthopedic procedure and red cell-depleted using hypotonic lysis. This sample was not processed further.
Class I MHC molecules were immunoaffinity purified from the JY cell line or from primary tumor samples, and their associated peptides were extracted as previously described in Zarling et al., 2006. Approximately 1.2-14×10^9 cells were lysed in a solution containing 20 mM Tris-HCl (pH 8.0), 150 mM NaCl, 1% CHAPS, one mM PMSF, five μg/mL aprotinin, 10 μg/mL leupeptin, 10 μg/mL pepstatin A, 1 μg/ml calyculin A, and phosphatase inhibitor (cocktails I and II; Sigma-Aldrich). The mixture was subjected to centrifugation and the resulting supernatant was passed over protein A sepharose pre-loaded with the HLA-A2-specific antibody BB7.2 or HLA-B7-specific antibody MEL Peptides were eluted from the purified class I MHC molecules with 10% acetic acid.

HLA-B*0702 = target: T2, HLA-B*0702 (Homo sapiens, UniProt P01889); assay: Phosphopeptides presented in association with class I molecules (HLA-B*0702) on cancer cells: melanoma and/or leukemia; design: key: Melanoma (M); Leukemia (L); L/M: Melanoma (M) and/or Leukemia (L); settings: cancer type on which the HLA-B*0702 phosphopeptide is presented
T2 construct: endogenous in cells; host or cells: melanoma and/or leukemia cells

Substance	Copies/cell class, AML1 [1]	Copies/cell class, CLL2 [1]	Copies/cell class, CLL4 [1]	Copies/cell class, JY [1]	Copies/cell class, ALL1 [1]	Copies/cell class, HCL1 [1]	L/M (HLA-B*0702)	Copies/cell class, B Cell [1]	Copies/cell class, T Cell [1]	Copies/cell class, BM [1]
295 (KPR[pS]PVVEL; listed as Homo sapiens) [compound 295]	4 (4 indicates >25 copies per cell)	4 (4 indicates >25 copies per cell)	4 (4 indicates >25 copies per cell)	4 (4 indicates >25 copies per cell)	2 (2 indicates 1-5 copies/cell)	4 (4 indicates >25 copies per cell)	L/M	–	–	–
296 (KPY[pS]PLASL; listed as Homo sapiens) [compound 296]	–	1 (1 indicates <1 copy/cell)	–	4 (4 indicates >25 copies per cell)	2 (2 indicates 1-5 copies/cell)	2 (2 indicates 1-5 copies/cell)	L	2 (2 indicates 1-5 copies/cell)	3 (3 indicates 6-25 copies per cell)	–
297 (LPA[pS]PRARL; listed as Homo sapiens) [compound 297]	1 (1 indicates <1 copy/cell)	–	–	–	–	–	L	–	–	–
302 (QPR[pS]PGPDYSL; listed as Homo sapiens) [compound 302]	3 (3 indicates 6-25 copies per cell)	–	–	–	–	–	L	–	–	–
305 (RAP[pS]PSSRM; listed as Homo sapiens) [compound 305]	–	–	–	–	4 (4 indicates >25 copies per cell)	–	L	1 (1 indicates <1 copy/cell)	–	–
306 (RPAK[pS]MDSL; listed as Homo sapiens) [compound 306]	–	2 (2 indicates 1-5 copies/cell)	–	4 (4 indicates >25 copies per cell)	2 (2 indicates 1-5 copies/cell)	1 (1 indicates <1 copy/cell)	L	2 (2 indicates 1-5 copies/cell)	3 (3 indicates 6-25 copies per cell)	–
307 (RPA[pS]AGAML; listed as Homo sapiens) [compound 307]	1 (1 indicates <1 copy/cell)	2 (2 indicates 1-5 copies/cell)	–	4 (4 indicates >25 copies per cell)	4 (4 indicates >25 copies per cell)	2 (2 indicates 1-5 copies/cell)	L	1 (1 indicates <1 copy/cell)	3 (3 indicates 6-25 copies per cell)	1 (1 indicates <1 copy/cell)
308 (RPA[pS]ARAQPGL; listed as Homo sapiens) [compound 308]	2 (2 indicates 1-5 copies/cell)	3 (3 indicates 6-25 copies per cell)	2 (2 indicates 1-5 copies/cell)	4 (4 indicates >25 copies per cell)	1 (1 indicates <1 copy/cell)	2 (2 indicates 1-5 copies/cell)	L/M	–	–	–
309 (RPA[pS]PAAKL; listed as Homo sapiens) [compound 309]	1 (1 indicates <1 copy/cell)	2 (2 indicates 1-5 copies/cell)	1 (1 indicates <1 copy/cell)	4 (4 indicates >25 copies per cell)	2 (2 indicates 1-5 copies/cell)	1 (1 indicates <1 copy/cell)	M	1 (1 indicates <1 copy/cell)	1 (1 indicates <1 copy/cell)	–
310 (RPA[pT]GGPGVA; listed as Homo sapiens) [compound 310]	–	–	–	–	1 (1 indicates <1 copy/cell)	–	L	–	–	–
312 (RPD[pS]RLGKTEL; listed as Homo sapiens) [compound 312]	2 (2 indicates 1-5 copies/cell)	1 (1 indicates <1 copy/cell)	–	4 (4 indicates >25 copies per cell)	2 (2 indicates 1-5 copies/cell)	1 (1 indicates <1 copy/cell)	L	–	–	–
313 (RPF[pS]PREAL; listed as Homo sapiens) [compound 313]	–	–	4 (4 indicates >25 copies per cell)	–	–	4 (4 indicates >25 copies per cell)	L	4 (4 indicates >25 copies per cell)	4 (4 indicates >25 copies per cell)	–
314 (RPH[pS]PEKAF; listed as Homo sapiens) [compound 314]	1 (1 indicates <1 copy/cell)	1 (1 indicates <1 copy/cell)	–	3 (3 indicates 6-25 copies per cell)	1 (1 indicates <1 copy/cell)	1 (1 indicates <1 copy/cell)	L	–	–	–
315 (RPI[pT]PPRNSA; listed as Homo sapiens) [compound 315]	–	–	–	–	1 (1 indicates <1 copy/cell)	–	L	–	–	–
317 (RPKLS[pS]PAL; listed as Homo sapiens) [compound 317]	1 (1 indicates <1 copy/cell)	–	–	–	–	–	L	–	–	–
318 (RPKPSS[pS]PV; listed as Homo sapiens) [compound 318]	–	1 (1 indicates <1 copy/cell)	–	–	2 (2 indicates 1-5 copies/cell)	–	L	–	–	1 (1 indicates <1 copy/cell)
319 (RPN[pS]PSPTAL; listed as Homo sapiens) [compound 319]	–	3 (3 indicates 6-25 copies per cell)	2 (2 indicates 1-5 copies/cell)	4 (4 indicates >25 copies per cell)	1 (1 indicates <1 copy/cell)	1 (1 indicates <1 copy/cell)	L	1 (1 indicates <1 copy/cell)	1 (1 indicates <1 copy/cell)	–
320 (RPPPPPD[pT]PP; listed as Homo sapiens) [compound 320]	–	–	–	–	1 (1 indicates <1 copy/cell)	–	L	–	–	–
321 (RPP[pS]PGPVL; listed as Homo sapiens) [compound 321]	–	1 (1 indicates <1 copy/cell)	1 (1 indicates <1 copy/cell)	4 (4 indicates >25 copies per cell)	2 (2 indicates 1-5 copies/cell)	1 (1 indicates <1 copy/cell)	L	–	2 (2 indicates 1-5 copies/cell)	–
322 (RPP[pS]SEFLDL; listed as Homo sapiens) [compound 322]	–	1 (1 indicates <1 copy/cell)	–	–	3 (3 indicates 6-25 copies per cell)	1 (1 indicates <1 copy/cell)	L	2 (2 indicates 1-5 copies/cell)	2 (2 indicates 1-5 copies/cell)	–
323 (RPQRA[pT]SNVF; listed as Homo sapiens) [compound 323]	2 (2 indicates 1-5 copies/cell)	4 (4 indicates >25 copies per cell)	4 (4 indicates >25 copies per cell)	4 (4 indicates >25 copies per cell)	4 (4 indicates >25 copies per cell)	4 (4 indicates >25 copies per cell)	L	2 (2 indicates 1-5 copies/cell)	4 (4 indicates >25 copies per cell)	–
324 (RPQRAT[pS]NVF; listed as Homo sapiens) [compound 324]	2 (2 indicates 1-5 copies/cell)	–	–	–	–	–	L	2 (2 indicates 1-5 copies/cell)	3 (3 indicates 6-25 copies per cell)	–
325 (RPRAN[pS]GGVDL; listed as Homo sapiens) [compound 325]	2 (2 indicates 1-5 copies/cell)	–	–	–	–	–	L	–	–	–
327 (RPRPH[pS]APSL; listed as Homo sapiens) [compound 327]	2 (2 indicates 1-5 copies/cell)	–	–	–	–	–	L	–	–	–
